“Also recorded” adds a separate entry of the source.
Experiments:
mouse CD8 T cells = test: Cytokine bead array: IFNγ production by TCR activated CD8 T cells; type: cell-based; conditions: anti-CD3 10 μg/ml
Experimental: Supernatant was removed from T cell cultures at 48 hours and CBAs performed to measure IFNγ production. Data represent mean for duplicate samples. ND=none detected.
(§1) The following T cell stimulations were used: TCR was stimulated using 10 μg/ml plate bound anti-CD3 (clone 145-2c11, WEHI antibody facility, Australia) unless a different concentration was specified. Recombinant murine TNF was purchased from R&D Systems (Minneapolis, Minn., USA). Recombinant mIL-2 was purchased from Peprotech. Smac-mimetics were purchased from Sellekchem, MA. The TNFR2 agonist mSTAR was prepared according from HEK293 cells were transiently transfected and cells cultured for 5-7 days, supernatants were purified using anti-Flag affinity chromatography, and the concentrations of the recombinant proteins were determined compared to standard proteins.
Supernatant from T cell cultures 48 hours after activation as described above were used to measure cytokine production (IL-2, IL-4, IL-6, IFN-γ, TNF, IL-17A and IL-10) using the Th1/Th2/Th17 BD Cytometric Bead Array (CBA) Kit (BD Bioscience). The CBA assay was performed according to manufacturer's instructions.
The effect of TNFR2 co-stimulation with TNF on the differentiation of TCR activated CD8 T cells was determined. […] This effect was synergised by the addition of smac-mimetics or IL-2 (FIG. 23).

naïve mouse CD8 T cells = test: Expansion of anti-CD3 activated naïve CD8 T cells (total cell numbers, CTV dilution by flow cytometry); type: cell-based; conditions: for receptor through which TNF co-stimulates CD8 T cells: CD8 T cells from WT, tnfr1−/− or tnfr2−/− mice, anti-CD3, TNF 5 ng/ml, 4 days
Experimental: (§2) T cells were isolated from pooled mouse lymph nodes (inguinal, axillary, brachial, superficial cervical and lumbar) and isolated using MACS negative selection kits for CD4+ or CD8+ T cells (Miltenyi Biotec, Auburn, Calif., USA). T cell purity was confirmed by flow cytometry following isolation. For all experiments, T cell purity was between 82.9-98.2%.
(§3) T cells were cultured in RPMI 1640 medium (Invitrogen) supplemented with non-essential amino acids, 1 mM Sodium-pyruvate, 10 mM HEPES, 100 U/ml Penicillin, 100 μg/ml Streptomycin (Invitrogen), 50 μM 2β-mercaptoethanol, 2 mM L-glutamine (Sigma) and 10% FCS (Sigma). Cells were incubated in a humidified environment at 37° C. in 5% CO2. For division tracking experiments, T cells were labelled with Cell Trace Violet (Invitrogen) according to the manufacturer's instructions. T cells were cultured in flat bottom tissue culture plates.
as §1
Triplicate wells were harvested at each time point. To determine absolute cell numbers, the number of live cells per culture was estimated by reference to a known number of Calibrite beads (Becton Dickinson, San Jose, Calif.), added directly to cell culture before collecting. Dead cells were identified via uptake of propidium iodide (SigmaAldrich) added to culture before flow cytometry. Flow cytometry was performed on a BD FACS Canto II or Fortessa.
To determine if TNF co-stimulation was restricted to CD4 T cells, or could act on all effector cells from the T cell lineage, co-stimulation of naïve CD8 T cells by TNFα was measured. Naïve CTV labelled CD8 T cells were cultured in the presence of plate bound anti-CD3 with various concentrations of recombinant mouse TNFα and the response measured by flow cytometry.
Naïve CD8 T cells were isolated from WT mice and stimulated with combinations of anti-CD3, TNF and SMAC mimetics. The expansion of CD8 T cells was determined by measuring T cell numbers quantified relative to a known number of quantification beads via flow cytometry.

naïve mouse CD4 T cells = test: Expansion of anti-CD3 activated naïve CD4 T cells (total cell numbers, CTV dilution by flow cytometry); type: cell-based; conditions: for CD4 T cell expansion (total live cell number, dilution of cell division dyes): plate bound anti-CD3 10 μg/ml, titrated doses of soluble recombinant TNF, over 4 days
Experimental: as §2, §3, §1
Triplicate wells were harvested at each time point. To determine absolute cell numbers, the number of live cells per culture was estimated by reference to a known number of Calibrite beads (Becton Dickinson, San Jose, Calif.), added directly to cell culture before collecting. […]
To examine the role of TNFα in T cell co-stimulation, naïve CD4 T cells were isolated from C57Bl/6 mice and stimulated with a range of recombinant mouse TNF concentrations in the presence of T cell receptor (TCR) crosslinking via plate bound anti-CD3 stimulation. CD4 T cells were labelled with the cell division tracking dye cell trace violet (CTV) and the response measured daily over 96 hours by quantifying T cell expansion using flow cytometry.
To determine if the co-stimulation effect of TNF on T cells could be mimicked using an agonist specific for TNFR2, the response of naïve mouse CD4 T cells activated via TCR in the presence of recombinant mouse TNF, or a TNFR2-specific agonist called mSTAR (Rauert et al., 2010; Chopra et al., 2016) was measured. Naïve CD4 T cells were CTV labelled and the response measured by flow cytometry after stimulation with anti-CD3 in the presence of TNF or mSTAR (FIGS. 16 to 19).

tnfr2−/− CD4 T cells = test: Expansion of anti-CD3 activated CD4 T cells deficient for TNFR2; type: cell-based, mouse; conditions: anti-CD3 10 μg/ml, TNF 5 ng/ml
Experimental: (§4) All experiments were performed using C57BL/6 mice bred and maintained under specific pathogen-free conditions in the WEHI animal facilities (Parkville, Victoria, Australia) and used between 8-20 weeks of age. All experiments were performed under the approval of the WEHI Animal Ethics Committee. Tnfr1−/− and Tnfr2−/− mice were maintained at the WEHI.
as §2, with “82.9-98.2%. […]” for “82.9-98.2%.”
as §1, with “Recombinant murine TNF was purchased from R&D Systems (Minneapolis, Minn., USA). Recombinant mIL-2 was purchased from Peprotech. Smac-mimetics were purchased from Sellekchem, MA.” left out, “proteins. […]” for “proteins.”
(§5) To determine the role of TNF receptors 1 (TNFR1) and 2 (TNFR2) as regulators of TNFα driven T cell co-stimulation, the response of T cells deficient for either TNFR1 or TNFR2 was measured. […]

tnfr1−/− CD4 T cells = test: Expansion of anti-CD3 activated CD4 T cells deficient for TNFR1; type: cell-based, mouse; conditions: anti-CD3 10 μg/ml, TNF 5 ng/ml, compared with WT CD4 T cells
Experimental: as §4
as §2, with “82.9-98.2%. […]” for “82.9-98.2%.”
as §1, with “Recombinant murine TNF was purchased from R&D Systems (Minneapolis, Minn., USA). Recombinant mIL-2 was purchased from Peprotech. Smac-mimetics were purchased from Sellekchem, MA.” left out, “proteins. […]” for “proteins.”
as §5

[1] = system: CD8 T cells deficient for TNFR2; test: Co-stimulation of anti-CD3 activated CD8 T cells deficient for TNFR2 (dilution of cell tracking dyes); type: cell-based, mouse; conditions: anti-CD3 10 μg/ml, mSTAR 5 ng/ml, 72 hours
Experimental: Data are representative examples of triplicate cultures.
as §4
as §2, with “82.9-98.2%. […]” for “82.9-98.2%.”
as §1, with “Recombinant murine TNF was purchased from R&D Systems (Minneapolis, Minn., USA). Recombinant mIL-2 was purchased from Peprotech. Smac-mimetics were purchased from Sellekchem, MA.” left out

[2] = anti-CD3 10 μg/ml, TNF 5 ng/ml or mSTAR 5 ng/ml, 72 hours

B1: IL-2: Recombinant mIL-2 purchased from Peprotech (protein, UniProt P04351 21-169, looked up)
Interleukin-2: APTSSSTSSSTAEAQQQQQQQQQQQQHLEQLLMDLQELLSRMENYRNLKLPRMLTFKFYLPKQATELKDLQCLEDELGPLRHVLDLTQSKSFQLEDAENFISNIRVTVVKLKGSDNTFECQFDDESATVVDFLRRWIAFCQSIISTSPQ
IFNγ production, effect of addition to TNF co-stimulation (mouse CD8 T cells; TNF 5 ng/ml with Smac-mimetic or IL-2, supernatant at 48 hours): synergised

B2: TNF: Recombinant murine TNF purchased from R&D Systems; wild type, not TNFR2-specific (protein)
chain: LRSSSQNSSDKPVAHVVANHQVEEQLEWLSQRANALLANGMDLKDNQLVVPADGLYLVYSQVLFKGQGCPDYVLLTHTVSRFAISYQEKVNLLSAVKSPCPKDTPEGAELKPWYEPIYLGGVFQLEKGDQLSAEVNLPKYLDFAESGQVYFGVIAL
receptor through which TNF co-stimulates CD8 T cells (naïve mouse CD8 T cells): co-stimulates CD8 T cells through TNFR2 | receptor through which TNF co-stimulates CD8 T cells (naïve mouse CD8 T cells; listed as TNFα): mediated exclusively by TNFR2 | CD8 T cell expansion (total CD8 T cell numbers, dilution of division tracking dyes) (naïve mouse CD8 T cells; plate bound anti-CD3 10 μg/ml, titrated doses of soluble recombinant TNF, over 4 days): potent co-stimulator of CD8 T cells; also recorded: potent co-stimulation factor to promote CD8 T cell division and expansion | receptor through which TNF co-stimulates CD4 T cells (naïve mouse CD4 T cells; CD4 T cells from WT, tnfr1−/− or tnfr2−/− mice, anti-CD3, TNF 5 ng/ml, 4 days): act exclusively through TNFR2; also recorded: co-stimulates CD4 T cells through TNFR2 | CD4 T cell expansion (total live cell number, dilution of cell division dyes) (naïve mouse CD4 T cells): promotes CD4 T cell division and expansion | CD4 T cell expansion (total live cell number, dilution of cell division dyes) (naïve mouse CD4 T cells; listed as TNFα): significantly enhanced CD4 T cell expansion in a dose dependent manner | co-stimulation of CD4 T cells in the absence of TNFR2 (tnfr2−/− CD4 T cells): no co-stimulation | IFNγ production (mouse CD8 T cells; TNF 5 ng/ml, supernatant at 48 hours): significantly increased; also recorded: increases IFNγ production | response of tnfr1−/− CD4 T cells to TNF co-stimulation (tnfr1−/− CD4 T cells): indistinguishable from WT CD4 T cells

B3: mSTAR: TNFR2-specific agonist TNF mutein (Rauert et al., 2010; Chopra et al., 2016), SEQ ID NO:3, produced in HEK293 cells (protein)
chain: ACGCAAAPDIKDLLSRLEELEGLVSSLREQGGGGSLRSSSQNSSDKPVAHVVANHQVEEQLEWLSQRANALLANGMDLKDNQLVVPADGLYLVYSQVLFKGQGCPDYVLLTHTVSRFAISYQEKVNLLSAVKSPCPKDTPEGAELKPWYEPIYLGGVFQLEKGDQLSAEVNLPKYLNFRESGQVYFGVIALGGGGSLRSSSQNSSDKPVAHVVANHQVEEQLEWLSQRANALLANGMDLKDNQLVVPADGLYLVYSQVLFKGQGCPDYVLLTHTVSRFAISYQEKVNLLSAVKSPCPKDTPEGAELKPWYEPIYLGGVFQLEKGDQLSAEVNLPKYLNFRESGQVYFGVIALGGGGSLRSSSQNSSDKPVAHVVANHQVEEQLEWLSQRANALLANGMDLKDNQLVVPADGLYLVYSQVLFKGQGCPDYVLLTHTVSRFAISYQEKVNLLSAVKSPCPKDTPEGAELKPWYEPIYLGGVFQLEKGDQLSAEVNLPKYLNFRESGQVYFGVIAL
CD8 T cell response (dilution of cell division dyes, total cell numbers), mSTAR compared with TNF (naïve mouse CD8 T cells; [2]): can mimic TNF CD8 T cell activation | CD4 T cell response (dilution of cell tracking dyes, total cell numbers), TNF compared with mSTAR (naïve mouse CD4 T cells; [2]): can mimic TNF mediated CD4 T cell activation | T cell co-stimulation in CD8 T cells deficient for TNFR2 [1]: did not induce any T cell co-stimulation; also recorded: does not activate CD8 T cells in the absence of TNFR2

From patent US20220193196A1, “Methods for Modulating T Cell Activation” (THE WALTER AND ELIZA HALL INSTITUTE OF MEDICAL RESEARCH, priority 2019, published 2022)
